From publication PMC5655137

Target: E. coli small ribosomal 30S subunit (E. coli (MRE600)) (UniProt P0AG67)

E. coli RNA polymerase core complex, sequence (P0A7Z4 whole entry): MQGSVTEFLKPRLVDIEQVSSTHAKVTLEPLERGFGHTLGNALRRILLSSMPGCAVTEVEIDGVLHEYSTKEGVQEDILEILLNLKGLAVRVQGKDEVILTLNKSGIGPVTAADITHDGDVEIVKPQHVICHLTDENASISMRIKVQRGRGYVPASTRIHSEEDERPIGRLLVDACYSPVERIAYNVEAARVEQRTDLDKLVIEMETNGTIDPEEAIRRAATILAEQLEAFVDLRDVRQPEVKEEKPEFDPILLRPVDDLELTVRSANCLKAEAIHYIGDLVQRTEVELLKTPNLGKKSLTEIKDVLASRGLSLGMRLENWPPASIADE
E. coli RNA polymerase core complex, sequence (P0A8V2 2-1341): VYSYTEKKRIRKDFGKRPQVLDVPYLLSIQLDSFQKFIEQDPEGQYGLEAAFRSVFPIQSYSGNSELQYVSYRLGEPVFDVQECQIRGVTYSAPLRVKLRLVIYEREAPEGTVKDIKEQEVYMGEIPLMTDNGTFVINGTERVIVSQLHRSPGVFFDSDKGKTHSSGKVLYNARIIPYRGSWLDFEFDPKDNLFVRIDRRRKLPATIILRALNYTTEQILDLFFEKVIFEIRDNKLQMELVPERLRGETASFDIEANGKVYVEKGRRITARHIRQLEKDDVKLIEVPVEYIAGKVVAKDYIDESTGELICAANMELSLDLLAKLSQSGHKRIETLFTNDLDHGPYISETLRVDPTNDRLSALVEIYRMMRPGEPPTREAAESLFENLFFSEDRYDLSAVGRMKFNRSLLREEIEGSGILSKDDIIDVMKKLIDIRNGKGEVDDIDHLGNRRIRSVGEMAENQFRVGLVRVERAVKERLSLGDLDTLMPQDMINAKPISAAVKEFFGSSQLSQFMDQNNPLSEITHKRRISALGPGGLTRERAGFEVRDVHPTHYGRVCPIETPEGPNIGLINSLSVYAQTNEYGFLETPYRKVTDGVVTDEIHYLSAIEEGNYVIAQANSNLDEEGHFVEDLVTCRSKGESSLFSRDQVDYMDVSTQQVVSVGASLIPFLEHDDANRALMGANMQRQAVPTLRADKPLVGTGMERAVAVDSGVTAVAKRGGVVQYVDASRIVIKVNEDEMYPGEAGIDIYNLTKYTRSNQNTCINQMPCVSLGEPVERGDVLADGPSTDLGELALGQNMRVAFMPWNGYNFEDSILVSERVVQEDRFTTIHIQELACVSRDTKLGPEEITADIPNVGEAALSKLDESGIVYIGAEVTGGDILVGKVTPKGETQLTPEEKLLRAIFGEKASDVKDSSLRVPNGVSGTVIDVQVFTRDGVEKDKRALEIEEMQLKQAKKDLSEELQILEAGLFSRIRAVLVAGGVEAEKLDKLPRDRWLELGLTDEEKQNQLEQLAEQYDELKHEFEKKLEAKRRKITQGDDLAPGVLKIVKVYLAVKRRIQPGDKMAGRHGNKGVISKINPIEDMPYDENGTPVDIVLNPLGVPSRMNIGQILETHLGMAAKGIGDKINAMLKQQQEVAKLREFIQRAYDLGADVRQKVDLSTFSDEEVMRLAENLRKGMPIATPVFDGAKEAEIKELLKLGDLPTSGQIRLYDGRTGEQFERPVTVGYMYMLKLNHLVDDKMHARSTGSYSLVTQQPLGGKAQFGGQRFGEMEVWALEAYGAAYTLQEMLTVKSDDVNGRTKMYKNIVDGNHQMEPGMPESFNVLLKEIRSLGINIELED
E. coli RNA polymerase core complex, sequence (P0A8T7 8-1376): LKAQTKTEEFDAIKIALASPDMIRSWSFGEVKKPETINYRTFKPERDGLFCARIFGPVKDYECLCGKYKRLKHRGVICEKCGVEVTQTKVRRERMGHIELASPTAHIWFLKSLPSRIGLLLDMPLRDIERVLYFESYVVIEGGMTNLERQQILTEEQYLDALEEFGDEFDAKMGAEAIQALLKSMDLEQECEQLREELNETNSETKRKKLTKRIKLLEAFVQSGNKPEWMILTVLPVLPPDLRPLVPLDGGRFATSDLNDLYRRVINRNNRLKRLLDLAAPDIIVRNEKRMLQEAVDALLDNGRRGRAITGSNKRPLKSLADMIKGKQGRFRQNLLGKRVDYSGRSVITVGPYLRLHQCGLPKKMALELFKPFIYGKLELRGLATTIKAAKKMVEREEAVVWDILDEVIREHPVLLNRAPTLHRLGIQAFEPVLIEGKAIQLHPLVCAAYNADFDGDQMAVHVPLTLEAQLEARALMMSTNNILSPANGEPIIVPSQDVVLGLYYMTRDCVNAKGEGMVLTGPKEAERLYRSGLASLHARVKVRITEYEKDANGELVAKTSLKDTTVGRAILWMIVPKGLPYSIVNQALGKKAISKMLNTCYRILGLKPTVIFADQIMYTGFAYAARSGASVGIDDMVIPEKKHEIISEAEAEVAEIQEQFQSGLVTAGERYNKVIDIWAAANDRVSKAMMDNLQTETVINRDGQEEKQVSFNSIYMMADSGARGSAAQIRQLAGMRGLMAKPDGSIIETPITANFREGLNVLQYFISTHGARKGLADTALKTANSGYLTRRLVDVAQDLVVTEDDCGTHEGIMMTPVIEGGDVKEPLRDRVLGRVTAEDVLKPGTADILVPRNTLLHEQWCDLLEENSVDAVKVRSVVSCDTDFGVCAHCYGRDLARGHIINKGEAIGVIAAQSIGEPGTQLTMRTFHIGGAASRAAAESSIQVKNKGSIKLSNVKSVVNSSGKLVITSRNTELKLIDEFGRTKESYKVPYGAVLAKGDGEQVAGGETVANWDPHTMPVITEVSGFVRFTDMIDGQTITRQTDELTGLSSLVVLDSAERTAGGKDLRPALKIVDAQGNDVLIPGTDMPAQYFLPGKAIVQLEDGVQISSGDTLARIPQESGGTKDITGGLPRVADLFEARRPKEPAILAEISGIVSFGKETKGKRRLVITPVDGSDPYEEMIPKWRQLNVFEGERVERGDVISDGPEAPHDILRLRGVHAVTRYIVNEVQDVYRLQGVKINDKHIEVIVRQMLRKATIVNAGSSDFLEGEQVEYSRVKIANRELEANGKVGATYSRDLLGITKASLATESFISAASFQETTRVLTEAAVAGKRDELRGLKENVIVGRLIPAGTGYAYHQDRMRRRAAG
E. coli RNA polymerase core complex, sequence (P0A800 whole entry): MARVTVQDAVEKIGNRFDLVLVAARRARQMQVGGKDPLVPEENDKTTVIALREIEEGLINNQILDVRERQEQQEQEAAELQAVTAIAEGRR

## E. coli RNA polymerase core complex (from UniProt P0A7Z4 1-329; P0A8V2 2-1341; P0A8T7 8-1376; P0A800 1-91) (complex; C-terminal 6xHis tag on beta' omitted; Zn-bound beta' Zn-finger; core without sigma; K12 sequences assumed)
  Kd: 21 nM
